The values that follow come from the RNAGym collection of RNA variant scans (doi:10.1093/molbev/msab373).

The labels stand for the following.
B1: Azoarcus group I ribozyme (parent)
chain: GUGCCUUGCGCCGGGAAACCACGCAAGGGAUGGUGUCAAAUUCGGCGAAACCUAAGCGCCCGCCCGGGCGUAUGGCAACGCCGAGCCAAGCUUCGGCGCCUGCGCCGAUGAAGGUGUAGAGACUAGACGGCACCCACCUAAGGCAAACGCUAUGGUGAAGGCAUAGUCCAGGGAGUGGCGAAAGUCACACAAACCGG

In the data set the parent is B1. The data set is described as follows: reverse-splicing fitness (ratio to wild type); higher = more active; in vitro selection; Mg2+ level not given. The method, boiled down:
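An in vitro group I ribozyme library with randomized positions was T7-transcribed and gel-purified. In triplicate, 10 pmol RNA in EPPS pH 7.5 was reacted with 50 pmoles of a 30-nt RNA substrate for 1 h at 37 °C across several added MgCl2 levels (1–48 mM), then stopped with EDTA. Products were reverse transcribed from a substrate-complementary primer, PCR-amplified and sequenced (HiSeq 4000). Fitness is a variant's read proportion after selection over that before, normalised to wild type.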
C82G A111G A120C A145C C150U C169G U176A: the reverse-splicing fitness was determined as 0.0242.

In the case of C82G A111G A120C A145C C150U C169G U176G, the reverse-splicing fitness came out at 0.0061.

As to C82G A111G A120C A145U C150U C169U, the reverse-splicing fitness worked out at 0.0124.

As to C82G A111G A120C A145U C150U C169G, the reverse-splicing fitness is 0.0094.

In the case of C82G A111G A120C A145U C150U C169A, the reverse-splicing fitness is 0.01.

For the variant C82G A111G A120C A145U C150G C169U U176G, the reverse-splicing fitness was found to be 0.00604.

With C82G A111G A120C A145U C150G C169U U176A, the reverse-splicing fitness is 0.0078.

In the case of C82G A111G A120C A145U C150G C169U U176C, the reverse-splicing fitness came to 0.0131.

For C82G A111C A145U C169G U176G, the reverse-splicing fitness was found to be 0.00766.

C82G A111C A145U C169G U176A: the reverse-splicing fitness is 0.014.

On to C82G A111C A145U C169G U176C, for which the reverse-splicing fitness came out at 0.0169.

For C82G A111C C150U C169G, the reverse-splicing fitness stood at 0.00815.

For the variant C82G A111C C150U C169U, the reverse-splicing fitness was 0.0125.

Turning to C82G A111C C150U C169A, the reverse-splicing fitness amounted to 0.0113.

Turning to C82G A111G A120C A145G U176C, the reverse-splicing fitness worked out at 0.0418.

In the case of C82G A111G A120C A145G U176G, the reverse-splicing fitness turned out to be 0.00851.

Take C82G A111G A120C A145G U176A: the reverse-splicing fitness came out at 0.0236.

Regarding C82G A111G A120C A145G C169G, the reverse-splicing fitness was 0.0079.

Regarding C82G A111G A120C A145G C169A, the reverse-splicing fitness came to 0.00771.

C82G A111G A120C A145G C169U: the reverse-splicing fitness was determined as 0.015.

With C82G A111C C150A C169U U176G, the reverse-splicing fitness was found to be 0.0093.

For the variant C82G A111C C150A C169U U176C, the reverse-splicing fitness worked out at 0.0178.

In the case of C82G A111C C150A C169U U176A, the reverse-splicing fitness worked out at 0.0193.

For C82G A111C C169G U176C, the reverse-splicing fitness worked out at 0.0255.

As to C82G A111C C169G U176G, the reverse-splicing fitness was determined as 0.00724.

On to C82G A111C C169G U176A, for which the reverse-splicing fitness worked out at 0.0182.

Consider C82G A111C C150U, for which the reverse-splicing fitness worked out at 0.143.

Consider C82G A111C C150G, for which the reverse-splicing fitness stood at 0.0174.

For C82G A111C C150A, the reverse-splicing fitness amounted to 0.0254.

As to C82G A111G A120C A145C C169U, the reverse-splicing fitness is 0.0144.

Consider C82G A111G A120C A145C C169G, for which the reverse-splicing fitness was 0.00871.

With C82G A111G A120C A145C C169A, the reverse-splicing fitness turned out to be 0.00695.

In the case of C82G A111G A120C C150A C169U U176C, the reverse-splicing fitness is 0.0175.

With C82G A111G A120C C150A C169U U176G, the reverse-splicing fitness amounted to 0.00877.

As for C82G A111G A120C C150A C169U U176A, the reverse-splicing fitness was 0.0165.

In the case of C82G A111G A120C C150A U176C, the reverse-splicing fitness stood at 0.0277.

For the variant C82G A111G A120C C150A U176G, the reverse-splicing fitness was 0.0141.

C82G A111G A120C C150A U176A: the reverse-splicing fitness was found to be 0.014.

As for C82G A111C C150A C169G U176G, the reverse-splicing fitness worked out at 0.00931.

Regarding C82G A111C C150A C169G U176A, the reverse-splicing fitness was 0.0173.

In the case of C82G A111C C150A C169G U176C, the reverse-splicing fitness was found to be 0.024.

As for C82G A111G A120C A145U C150A C169A U176A, the reverse-splicing fitness was found to be 0.0183.

In the case of C82G A111G A120C A145U C150A C169A U176C, the reverse-splicing fitness worked out at 0.0161.

As to C82G A111G A120C A145U C150A C169A U176G, the reverse-splicing fitness stood at 0.0061.

With C82G A111G A120C A145G C150U C169G U176G, the reverse-splicing fitness amounted to 0.00597.

With C82G A111G A120C A145G C150U C169G U176A, the reverse-splicing fitness was 0.0174.

Turning to C82G A111G A120C A145G C150U C169G U176C, the reverse-splicing fitness was 0.0192.

For the variant C82G A111G A120C A145G C150A U176C, the reverse-splicing fitness was 0.0254.

In the case of C82G A111G A120C A145G C150A U176G, the reverse-splicing fitness is 0.0119.

As to C82G A111G A120C A145G C150A U176A, the reverse-splicing fitness amounted to 0.0144.

For the variant C82G A111G A120C C150G C169A U176C, the reverse-splicing fitness was determined as 0.016.

On to C82G A111G A120C C150G C169A U176A, for which the reverse-splicing fitness is 0.0102.

In the case of C82G A111G A120C C150G C169A U176G, the reverse-splicing fitness came out at 0.00813.

Turning to C82G A111G A120C A145C U176G, the reverse-splicing fitness amounted to 0.00938.

As to C82G A111G A120C A145C U176C, the reverse-splicing fitness worked out at 0.035.

Regarding C82G A111G A120C A145C U176A, the reverse-splicing fitness came out at 0.0266.

On to C82G A111G A120C C150G C169U U176A, for which the reverse-splicing fitness came out at 0.00806.

Take C82G A111G A120C C150G C169U U176G: the reverse-splicing fitness is 0.0076.

Take C82G A111G A120C C150G C169U U176C: the reverse-splicing fitness is 0.0135.

As for C82G A111G A120C A145U C169U U176A, the reverse-splicing fitness turned out to be 0.0129.

On to C82G A111G A120C A145U C169U U176G, for which the reverse-splicing fitness came out at 0.00484.

For C82G A111G A120C A145U C169U U176C, the reverse-splicing fitness worked out at 0.0124.

In the case of C82G A111C A145U C150U C169G U176G, the reverse-splicing fitness worked out at 0.00868.

Take C82G A111C A145U C150U C169G U176A: the reverse-splicing fitness worked out at 0.0124.

Turning to C82G A111C A145U C150U C169G U176C, the reverse-splicing fitness is 0.0196.

For the variant C82G A111C C150A U176C, the reverse-splicing fitness was determined as 0.0293.

As to C82G A111C C150A U176G, the reverse-splicing fitness was 0.0116.

Turning to C82G A111C C150A U176A, the reverse-splicing fitness came out at 0.0223.

As for C82G A111C C150A C169G, the reverse-splicing fitness amounted to 0.00787.

Take C82G A111C C150A C169U: the reverse-splicing fitness came out at 0.0119.

On to C82G A111C C150A C169A, for which the reverse-splicing fitness was 0.011.

As to C82G A111G A120C A145U C150A C169G, the reverse-splicing fitness came to 0.00822.

Take C82G A111G A120C A145U C150A C169U: the reverse-splicing fitness was 0.00952.

For C82G A111G A120C A145U C150A C169A, the reverse-splicing fitness amounted to 0.0104.

Regarding C82G A111G A120C A145C C169U U176A, the reverse-splicing fitness came out at 0.0142.

Regarding C82G A111G A120C A145C C169U U176G, the reverse-splicing fitness stood at 0.00475.

Consider C82G A111G A120C A145C C169U U176C, for which the reverse-splicing fitness came out at 0.01.

C82G A111G A120C: the reverse-splicing fitness was determined as 0.0886.

For the variant C82G A111G A120C A145U, the reverse-splicing fitness worked out at 0.0901.

Consider C82G A111G A120C A145C, for which the reverse-splicing fitness came to 0.0798.

On to C82G A111G A120C A145G, for which the reverse-splicing fitness worked out at 0.0871.

Turning to C82G A111G A120C A145U C150A U176C, the reverse-splicing fitness was determined as 0.0167.

In the case of C82G A111G A120C A145U C150A U176A, the reverse-splicing fitness is 0.0132.

Regarding C82G A111G A120C A145U C150A U176G, the reverse-splicing fitness is 0.00773.
